Consider three molecules from patent US7824897B2, “Modified tumor necrosis factor-alpha converting enzyme and methods of use thereof” (Schering Corp., priority 2002, dated 2010).

Where a chain is given by its changes, count along the chain named. Names may count otherwise.

Common to all, as to type: physicochemical
The target in data set [1] is T1, TACE (Homo sapiens, UniProt P78536, N452Q/S266A).
T1 construct: Only the catalytic domain was purified; GS linker + His6 (C); made in house; host or cells: Trichoplusia ni (High5) cells, baculovirus
In words: Stability of TACE (auto-proteolysis) on storage at 4 degrees Celsius, SDS-PAGE. As to conditions: TACE 15 mg/ml, seven days. As for the experimental part: Stability of TACE: The stability of TACE was examined under several buffer conditions at pH 7.5. Twenty microliter aliquots of TACE at 15 mg/ml were desalted over P-6 spin columns (BioRAD, Hercules, Calif.) that had been equilibrated in: • (a) 25 mM Tris, 0.15M NaCl; • (b) 25 mM Tris; or • (c) 25 mM Tris plus N-{D,L-2-(hydroxyaminocarbonyl)methyl-4-methylpentanoyl}-L-3-amino-2-dimethylbutanoyl-L-alanine, 2-(amino)ethyl amide.
The stability of the TACE protein was evaluated after storage at 4 degrees Celsius for seven days. After incubating the TACE polypeptide under the three conditions listed above, Sodium Dodecyl Sulfate PolyAcrylamide Gel Electrophoresis (SDS-PAGE) was performed. […] Moreover, the sequencing data indicated the presence of a single cleavage site at 352Y-V353 of SEQ ID NO: 2.

Data set [2] deals with T1, TACE. Description: Stability of TACE and TACE mutants under different storage conditions, SDS-PAGE. As to conditions: 25 mM Tris pH 7.5, 4 degrees Celsius, 3 hours. As for the experimental part: (§1) Stability of TACE and TACE mutants: To test for stability under different storage conditions, 20 ul of TACE protein, at 15 mg/ml, was desalted over BIO-RAD P-6 columns equilibrated at pH 7.5 in: • (a) 25 mM Tris, 0.15M NaCl; • (b) 25 mM Tris+1 mM N-{D,L-2-(hydroxyaminocarbonyl)methyl-4-methylpentanoyl}-L-3-amino-2-dimethylbutanoyl-L-alanine, 2-(amino)ethyl amide; or • (c) 25 mM Tris.
(§2) One microliter aliquots were analyzed by SDS-PAGE after storing them for 3 hours, or 17 days at 4 degrees Celsius. […] In direct contrast, all constructs were stable in either 0.15M NaCl, or 1 mM N-{D,L-2-(hydroxyaminocarbonyl)methyl-4-methylpentanoyl}-L-3-amino-2-dimethylbutanoyl-L-alanine, 2-(amino)ethyl amide.

The test system of data set [3] is TACE. The data set is described as above. As to conditions: 25 mM Tris pH 7.5, 4 degrees Celsius, 17 days. As to the method: as §1, §2

For `CC(C)CC(CC(=O)NO)C(=O)N[C@H](C(=O)N[C@@H](C)C(=O)NCCN)C(C)(C)C` (stereo partly drawn) [N-{D,L-2-(hydroxyaminocarbonyl)methyl-4-methylpentanoyl}-L-3-amino-2-dimethylbutanoyl-L-alanine, 2-(amino)ethyl amide, reference compound], the “SDS-PAGE bands after storage with inhibitor” value on TACE [1] (25 mM Tris pH 7.5, 1:1.5 molar ratio enzyme:inhibitor, 4 degrees Celsius) is reported as “only a single band having a molecular weight of 30 Kd was observed”.

B1: TACE: native tumor necrosis factor-alpha converting enzyme catalytic domain (SEQ ID NO: 6), with GS linker and polyHis tag (protein, listed as Homo sapiens)
chain: RADPDPMKNTCKLLVVADHRFYRYMGRGEESTTTNYLIELIDRVDDIYRNTAWDNAGFKGYGIQIEQIRILKSPQEVKPGEKHYNMAKSYPNEEKDAWDVKMLLEQFSFDIAEEASKVCLAHLFTYQDFDMGTLGLAYVGSPRANSHGGVCPKAYYSPVGKKNIYLNSGLTSTKNYGKTILTKEADLVTTHELGHNFGAEHDPDGLAECAPNEDQGGKYVMYPIAVSGDHENNKMFSQCSKQSIYKTIESKAQECFQERSNKV
modifications: GS linker and polyHis tag
Take B1: the figures for the “Proteolysis by SDS-PAGE in the absence of salt” value with TACE [2] and in the data set with TACE [3] were “substantial proteolysis” and “completely proteolyzed”, respectively. Also, the “SDS-PAGE bands after storage without high salt or inhibitor” value in the data set with TACE [1] (25 mM Tris pH 7.5, 4 degrees Celsius) was “two additional fainter bands”.

B2: V353G: modified TACE catalytic domain, Val353 replaced with glycine (SEQ ID NO: 20) (protein, listed as Homo sapiens)
chain: B1 chain with V139G
B2: in the data set with TACE [3], the “Proteolysis by SDS-PAGE in the absence of salt” value is on record as “highly resistant to auto-proteolysis”.
